The nature of this data set: 6% PFO-PAGE immunoblot. The note with it: glycan lost; control: wild type.

B1: SR-BI (scavenger receptor class B type I; CLA-1): T175A (protein)
parent chain: MGCSAKARWAAGALGVAGLLCAVLGAVMIVMVPSLIKQQVLKNVRIDPSSLSFNMWKEIPIPFYLSVYFFDVMNPSEILKGEKPQVRERGPYVYREFRHKSNITFNNNDTVSFLEYRTFQFQPSKSHGSESDYIVMPNILVLGAAVMMENKPMTLKLIMTLAFTTLGERAFMNRTVGEIMWGYKDPLVNLINKYFPGMFPFKDKFGLFAELNNSDSGLFTVFTGVQNISRIHLVDKWNGLSKVDFWHSDQCNMINGTSGQMWPPFMTPESSLEFYSPEACRSMKLMYKESGVFEGIPTYRFVAPKTLFANGSIYPPNEGFCPCLESGIQNVSTCRFSAPLFLSHPHFLNADPVLAEAVTGLHPNQEAHSLFLDIHPVTGIPMNCSVKLQLSLYMKSVAGIGQTGKIEPVVLPLLWFAESGAMEGETLHTFYTQLVLMPKVMHYAQYVLLALGCVLLLVPVICQIRSQVGAGQRAARADSHSLACWGKGASDRTLWPTAAWSPPPAAVLRLCRSGSGHCWGLRSTLASFACRVATTLPVLEGLGPSLGGGTGS
As to B1, the oligomerisation entry is “no change”.

Source of the values: publication PMC3448639.
